Results as given in the supplement of paper PMC7125110.
± gives the standard error. Fewer inactive variants are shown than the library holds.

B1: glmS ribozyme (parent)
chain: AUAAAAGCGCCAGAACUACAGAAAUGUAGUUGACGAGGAGGAGGUUUAUCGAAUUUUCGGCGGAUGCCUCCAAA

Tests used:
Settings in all cases: with glucosamine-6-phosphate
glucosamine-6-phosphate [1] = variants of: B1; test: self-cleavage kobs at 160 uM GlcN6P; higher = faster cleavage; RNA array
In short: (§1)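 Weighted Michaelis–Menten fits across concentrations supplied kcat and KM, based on kobs from one- or two-exponential decay fits to normalised per-tile medians. The data came from barcoded ribozyme variants transcribed in situ by E. coli RNA polymerase on sequenced MiSeq chips and tracked at 37 °C by a hybridised Cy3 probe. Glucosamine-6-phosphate (40 μM to 10 mM) in HEPES/KCl/Mg(OAc)2 buffer was flowed in.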

glucosamine-6-phosphate [2] = variants of: B1; test: self-cleavage kobs at 640 uM GlcN6P; higher = faster cleavage; RNA array
In short: as §1

glucosamine-6-phosphate [3] = variants of: B1; test: self-cleavage kobs at 2500 uM GlcN6P; higher = faster cleavage; RNA array
In short: as §1

glucosamine-6-phosphate [4] = variants of: B1; test: self-cleavage kobs at 10000 uM GlcN6P; higher = faster cleavage; RNA array
In short: as §1

Variant | self-cleavage kobs at 160 uM GlcN6P (glucosamine-6-phosphate [1]) [s⁻¹] | self-cleavage kobs at 640 uM GlcN6P (glucosamine-6-phosphate [2]) [s⁻¹] | self-cleavage kobs at 2500 uM GlcN6P (glucosamine-6-phosphate [3]) [s⁻¹] | self-cleavage kobs at 10000 uM GlcN6P (glucosamine-6-phosphate [4]) [s⁻¹]
A12G G29A G41C | < 1e-05 | < 1e-05 | < 1e-05 | < 1e-05
A14U G43U U46A | < 1e-05 | < 1e-05 | < 1e-05 | 
G9A C10U | < 1e-05 | < 1e-05 | < 1e-05 | < 1e-05
G9U U31A U65G | < 1e-05 | < 1e-05 | < 1e-05 | 
G41U U46G C61A | < 1e-05 | < 1e-05 | < 1e-05 | 
A12U A33C A39G C50G A52G | < 1e-05 | < 1e-05 |  | 
A33U G51U C58U | < 1e-05 |  |  | 
A6C G38C | < 1e-05 | < 1e-05 |  | 
C10A G41C U46G C68U | < 1e-05 | < 1e-05 | < 1e-05 | 
U30G A39U G60U | < 1e-05 |  | < 1e-05 | 
A64U C70A | < 1e-05 |  |  | < 1e-05
G29C A36U G43C | < 1e-05 | < 1e-05 |  | 
G35C G40A A42U | < 1e-05 | < 1e-05 | < 1e-05 | 
G7A A33C A42C A48C | < 1e-05 |  | < 1e-05 | 
A12U G29A A53G G62A | < 1e-05 | < 1e-05 | < 1e-05 | 
A39C A48G | < 1e-05 |  |  | 3.36e-05 ± 1.2e-05
U31C C34U C71U | < 1e-05 | < 1e-05 | < 1e-05 | 
C16G A33C C58G G66A | < 1e-05 |  | < 1e-05 | 
C34A U49C | < 1e-05 | < 1e-05 | < 1e-05 | < 1e-05
C50G C61U C71U | 0.000138 ± 4.3e-05 | 0.000232 ± 7.4e-05 | 9.98e-05 ± 2.4e-05 | 0.000211 ± 5.4e-05
A12G G40U G62C | < 1e-05 | < 1e-05 | < 1e-05 | 
A36G A64G C71U | < 1e-05 | < 1e-05 |  | 
G7C C68U | < 1e-05 | < 1e-05 | < 1e-05 | < 1e-05
G37A A42C U46C | < 1e-05 |  | < 1e-05 | 

Variant | self-cleavage kobs at 160 uM GlcN6P (glucosamine-6-phosphate [1]) [s⁻¹] | self-cleavage kobs at 640 uM GlcN6P (glucosamine-6-phosphate [2]) [s⁻¹] | self-cleavage kobs at 2500 uM GlcN6P (glucosamine-6-phosphate [3]) [s⁻¹] | self-cleavage kobs at 10000 uM GlcN6P (glucosamine-6-phosphate [4]) [s⁻¹]
C34U U47A | < 1e-05 |  | < 1e-05 | 
A15U G38U G59U | < 1e-05 |  |  | 
C34U U54A U69G | 0.000126 ± 4.6e-05 | 0.000598 ± 0.0002 | 0.000128 ± 4.7e-05 | 0.000125 ± 3.4e-05
A33U A36C G43A C70G | < 1e-05 | < 1e-05 | < 1e-05 | 
G9U C16U G29A U45A U54C | < 1e-05 |  |  | 
A6G A53C G63A A64G | < 1e-05 | < 1e-05 |  | 
G41C U46G U57C | < 1e-05 | < 1e-05 | < 1e-05 | 
G9C A39C | < 1e-05 | < 1e-05 | < 1e-05 | < 1e-05
C16U G40C C50A C67G | < 1e-05 | < 1e-05 |  | 
U30C A36G C67A | < 1e-05 |  | < 1e-05 | 
G66U U69C | 0.000111 ± 2e-05 | 0.000207 ± 6.9e-05 | 0.000653 ± 0.00016 | 
G41C G43A G44C C68U C71U | < 1e-05 |  | < 1e-05 | 
A12C U56C | 6.31e-05 ± 1.4e-05 | 0.000455 ± 8.2e-05 | 0.00111 ± 0.00017 | 0.00253 ± 0.00077
A14C A15U C70A | 0.000105 ± 3.4e-05 | 0.000263 ± 5.6e-05 | 0.000232 ± 8.4e-05 | 
G29U G32U A64U | < 1e-05 |  |  | 
C61U U65G | < 1e-05 | < 1e-05 |  | 
C34U G37A C50A A52G C70G | 0.000507 ± 0.00015 | 0.000453 ± 0.00013 | 0.000268 ± 9.2e-05 | 
A42C A48G U55A | < 1e-05 | < 1e-05 |  | 
G29A C50A A53C | < 1e-05 |  |  | 
C10A C34G A36G A39C U65A | < 1e-05 |  | < 1e-05 | 
C10G G40A C70A | < 1e-05 | < 1e-05 | < 1e-05 | < 1e-05
A36C A52C C70U | < 1e-05 | < 1e-05 |  | 
G32C A33U A52G | < 1e-05 | < 1e-05 | < 1e-05 | 
